Data as given in patent US11267868 (dated 2022).
Positions count from the first letter of the chain named. Read-outs that look alike come from different tables or passages of the source. Blank lines part the entries; values can stand above or below the binder they belong to.

How the values were obtained:
Assay in all cases: SPR
[1] = target: T1, FcgRIIaH (human, UniProt P12318)
T1 chain: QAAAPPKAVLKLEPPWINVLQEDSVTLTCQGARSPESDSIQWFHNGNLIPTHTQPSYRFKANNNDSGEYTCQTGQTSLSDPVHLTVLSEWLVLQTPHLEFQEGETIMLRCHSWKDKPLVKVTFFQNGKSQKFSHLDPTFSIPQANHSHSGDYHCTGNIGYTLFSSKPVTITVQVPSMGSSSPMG

[2] = target: T2, FcgRIIIaV (human, UniProt P08637)
[3] = target: T3, FcgRIIb (human, UniProt P31994)
T3 chain: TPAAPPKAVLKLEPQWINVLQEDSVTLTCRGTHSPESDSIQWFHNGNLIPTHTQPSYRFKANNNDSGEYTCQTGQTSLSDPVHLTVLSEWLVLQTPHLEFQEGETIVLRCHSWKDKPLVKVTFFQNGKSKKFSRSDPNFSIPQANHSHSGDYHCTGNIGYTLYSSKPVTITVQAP

[4] = target: T4, FcgRIIaR (human, UniProt P12318)
T4 chain: T1 chain with H134R

[5] = target: T5, FcgRIa (human, UniProt P12314)
T5 chain: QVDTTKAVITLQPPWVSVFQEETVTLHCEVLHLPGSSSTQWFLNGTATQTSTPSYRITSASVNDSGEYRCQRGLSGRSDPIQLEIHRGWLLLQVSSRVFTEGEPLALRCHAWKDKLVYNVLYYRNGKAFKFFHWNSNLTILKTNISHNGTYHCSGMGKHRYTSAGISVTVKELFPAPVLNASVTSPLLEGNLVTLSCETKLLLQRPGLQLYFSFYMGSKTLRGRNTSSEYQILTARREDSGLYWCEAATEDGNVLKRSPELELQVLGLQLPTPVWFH

[6] = target: T4, FcgRIIaR
[7] = target: T2, FcgRIIIaV; remark: listed apart in the source
[8] = target: T1, FcgRIIaH
[9] = target: T3, FcgRIIb
[10] = target: T1, FcgRIIaH
[11] = target: T5, FcgRIa
[12] = target: T3, FcgRIIb
[13] = target: T2, FcgRIIIaV; remark: listed apart in the source
[14] = target: T4, FcgRIIaR
[15] = target: T5, FcgRIa
[16] = target: T6, mFcgRI (mouse, UniProt P26151)
T6 chain: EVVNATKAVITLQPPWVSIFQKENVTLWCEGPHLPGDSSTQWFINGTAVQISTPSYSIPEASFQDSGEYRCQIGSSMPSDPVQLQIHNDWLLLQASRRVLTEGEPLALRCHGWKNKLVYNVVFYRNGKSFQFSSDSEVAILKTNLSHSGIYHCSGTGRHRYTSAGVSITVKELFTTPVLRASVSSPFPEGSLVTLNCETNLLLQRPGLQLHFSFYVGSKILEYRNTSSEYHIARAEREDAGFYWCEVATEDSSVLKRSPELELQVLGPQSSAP

[17] = target: T7, mFcgRIV (mouse, UniProt A0A0B4J1G0)
T7 chain: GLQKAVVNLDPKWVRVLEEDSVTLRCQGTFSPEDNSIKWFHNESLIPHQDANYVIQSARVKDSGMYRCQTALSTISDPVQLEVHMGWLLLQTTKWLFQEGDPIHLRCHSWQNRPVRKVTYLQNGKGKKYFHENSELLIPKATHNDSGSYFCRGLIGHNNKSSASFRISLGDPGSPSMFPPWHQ

T2 sequence (P08637 17-208 F176V): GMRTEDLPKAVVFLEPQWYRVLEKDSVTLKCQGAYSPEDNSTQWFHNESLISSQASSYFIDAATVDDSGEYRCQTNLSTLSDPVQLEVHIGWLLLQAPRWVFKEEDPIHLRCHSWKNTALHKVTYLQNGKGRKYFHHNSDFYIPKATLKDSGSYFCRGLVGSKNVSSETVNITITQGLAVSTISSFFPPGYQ

B1: IL6R-P577/IL6R-L (antibody)
chain 1: QVQLQESGPGLVKPSETLSLTCAVSGHSISHDHAWSWVRQPPGEGLEWIGFISYSGITNYNPSLQGRVTISRDNSKNTLYLQMNSLRAEDTAVYYCARSLARTTAMDYWGEGTLVTVSSASTKGPSVFPLAPSSKSTSGGTAALGCLVKDYFPEPVTVSWNSGALTSGVHTFPAVLQSSGLYSLSSVVTVPSSSLGTQTYICNVNHKPSNTKVDKKVEPKSCDKTHTCPPCPAPDLLGDDSVFLFPPKPKDTLMISRTPEVTCVVIDVAEEDGEVKFNWYVDGVEVHNAKTKPREEQDNSTYRVVSVLTVLHQDWLNGKEYKCKVSNKALPRPIEKTISKAKGQPREPQVYTLPPSRDELTKNQVSLTCLVKGFYPSDIAVEWESNGQPENNYKTTPMVLDSDGSFFLYSKLTVDKSRWQQGNVFSCSVMHEALHNHYTQKSLSLSP
chain 2: not shown
- Kd [1]: 1 µM
- Kd [2]: 12 µM
- Kd [3]: 0.0012 µM
- Kd [4]: 0.044 µM

B3: IL6R-P699/IL6R-L (antibody)
chain 1: B1 chain 1 with D239G, A269R, E270P, D298Y, R332A, M398P
chain 2: not shown
- Kd [5]: 0.69 µM
- Kd [6]: 57 µM
- Kd [7]: 65 µM
- Kd [8]: 250 µM
- Kd [9]: 4.1 µM

B4: IL6R-P587/IL6R-L (antibody)
chain 1: B1 chain 1 with D239G, D298Y, R332A, M398P
chain 2: not shown
- Kd [1]: 12 µM
- Kd [10]: 14 µM
- Kd [11]: 0.00021 µM
- Kd [12]: 0.028 µM
- Kd [2]: 28 µM
- Kd [13]: 32 µM
- Kd [3]: 0.015 µM
- Kd [4]: 0.71 µM
- Kd [14]: 1.2 µM
- Kd [15]: 0.00071 µM

Further lines, results first:

- Kd [5]: 0.68 µM
- Kd [6]: 71 µM
- Kd [7]: 82 µM
- Kd [8]: 300 µM
- Kd [9]: 3.4 µM
B2: IL6R-P712/IL6R-L (antibody)
chain 1: B1 chain 1 with D239G, A269R, E270P, D298E, R332A, M398P
chain 2: not shown

- Kd [5]: 1.5 µM
- Kd [6]: 95 µM
- Kd [7]: 73 µM
- Kd [8]: 310 µM
- Kd [9]: 10 µM
B5: IL6R-P730/IL6R-L (antibody)
chain 1: B1 chain 1 with D239Q, A269R, E270P, D298E, R332A, M398P
chain 2: not shown

- binding result [16]: no binding
- binding result [17]: no binding
B6: VH3/L(WT)-mIgG1 (antibody)
chain 1: QVQLQESGPGLVKPSETLSLTCAVSGHSISHDHAWSWVRQPPGEGLEWIGFISYSGITNYNPSLQGRVTISRDNSKNTLYLQMNSLRAEDTAVYYCARSLARTTAMDYWGEGTLVTVSSAKTTPPSVYPLAPGSAAQTNSMVTLGCLVKGYFPEPVTVTWNSGSLSSGVHTFPAVLQSDLYTLSSSVTVPSSTWPSETVTCNVAHPASSTKVDKKIVPRDCGCKPCICTVPEVSSVFIFPPKPKDVLTITLTPKVTCVVVDISKDDPEVQFSWFVDDVEVHTAQTQPREEQFNSTFRSVSELPIMHQDWLNGKEFKCRVNSAAFPAPIEKTISKTKGRPKAPQVYTIPPPKEQMAKDKVSLTCMITDFFPEDITVEWQWNGQPAENYKNTQPIMDTDGSYFVYSKLNVQKSNWEAGNTFTCSVLHEGLHNHHTEKSLSHSPGK
chain 2: not shown
